This data set concerns the molecule itself. Put plainly: SEC-MALS; S200 10/300 GL column, 25 mM HEPES pH 7.4, 200 mM NaCl, 0.5 mM TCEP, 1 mM MgCl2, 0.5 mL/min, 10 °C; injected: hMiro1-C 16 mg/mL, hMiro2-C 7 mg/mL, hMiro1-CM 18 mg/mL. A general note: SEC sorts molecules by how far they enter the pores of the column.

Consider one protein from paper PMC5015425, “Structural insights into Parkin substrate lysine targeting from minimal Miro substrates” (Scientific Reports, 2016).

B1: human Miro1 cGTPase domain, aa 411-592 (hMiro1-C) (domain or fragment, UniProt Q8IXI2 411-592, looked up)
chain: KKQTQRNVFRCNVIGVKNCGKSGVLQALLGRNLMRQKKIREDHKSYYAINTVYVYGQEKYLLLHDISESEFLTEAEIICDVVCLVYDVSNPKSFEYCARIFKQHFMDSRIPCLIVAAKSDLHEVKQEYSISPTDFCRKHKMPPPQAFTCNTADAPSKDIFVKLTTMAMYPHVTQADLKSSTF
notes: human Miro1 (RhoT1), C-terminal GTPase (cGTPase) domain, residues 411-592; Dimer in the crystal and in solution; Details of expression are in the Supplementary Methods; also called hMiro1-CD; hMiro1 cGTPase; source: bacteria, purified (TALON beads, HiTrap S cation exchange, Superdex 200 when necessary)
With B1, the stoichiometry N (usually the number of molecules, sites or subunits per partner or assembly) was found to be 2.
